IntAct's records for PubMed 25910212

B1: Keratin, type I cytoskeletal 18 (Homo sapiens), P05783 (parent)
chain: MSFTTRSTFSTNYRSLGSVQAPSYGARPVSSAASVYAGAGGSGSRISVSRSTSFRGGMGSGGLATGIAGGLAGMGGIQNEKETMQSLNDRLASYLDRVRSLETENRRLESKIREHLEKKGPQVRDWSHYFKIIEDLRAQIFANTVDNARIVLQIDNARLAADDFRVKYETELAMRQSVENDIHGLRKVIDDTNITRLQLETEIEALKEELLFMKKNHEEEVKGLQAQIASSGLTVEVDAPKSQDLAKIMADIRAQYDELARKNREELDKYWSQQIEESTTVVTTQSAEVGAAETTLTELRRTVQSLEIDLDSMRNLKASLENSLREVEARYALQMEQLNGILLHLESELAQTRAEGQRQAQEYEALLNIKVKLEAEIATYRRLLEDGEDFNLGDALDSSNSMQTIQKTTTRRIVDGKVVSETNDTKVLRH
B2: Neutrophil cytosol factor 2 (Homo sapiens), P19878 (parent)
chain: MSLVEAISLWNEGVLAADKKDWKGALDAFSAVQDPHSRICFNIGCMYTILKNMTEAEKAFTRSINRDKHLAVAYFQRGMLYYQTEKYDLAIKDLKEALIQLRGNQLIDYKILGLQFKLFACEVLYNIAFMYAKKEEWKKAEEQLALATSMKSEPRHSKIDKAMECVWKQKLYEPVVIPVGKLFRPNERQVAQLAKKDYLGKATVVASVVDQDSFSGFAPLQPQAAEPPPRPKTPEIFRALEGEAHRVLFGFVPETKEELQVMPGNIVFVLKKGNDNWATVMFNGQKGLVPCNYLEPVELRIHPQQQPQEESSPQSDIPAPPSSKAPGRPQLSPGQKQKEEPKEVKLSVPMPYTLKVHYKYTVVMKTQPGLPYSQVRDMVSKKLELRLEHTKLSYRPRDSNELVPLSEDSMKDAWGQVKNYCLTLWCENTVGDQGFPDEPKESEKADANNQTTEPQLKKGSQVEALFSYEATQPEDLEFQEGDIILVLSKVNEEWLEGECKGKVGIFPKVFVEDCATTDLESTRREV

Tests used:
[1] = variants of: B1; details: with goga2_human GOLGA2, Q08379
Target sequence in this assay (Q08379 whole entry): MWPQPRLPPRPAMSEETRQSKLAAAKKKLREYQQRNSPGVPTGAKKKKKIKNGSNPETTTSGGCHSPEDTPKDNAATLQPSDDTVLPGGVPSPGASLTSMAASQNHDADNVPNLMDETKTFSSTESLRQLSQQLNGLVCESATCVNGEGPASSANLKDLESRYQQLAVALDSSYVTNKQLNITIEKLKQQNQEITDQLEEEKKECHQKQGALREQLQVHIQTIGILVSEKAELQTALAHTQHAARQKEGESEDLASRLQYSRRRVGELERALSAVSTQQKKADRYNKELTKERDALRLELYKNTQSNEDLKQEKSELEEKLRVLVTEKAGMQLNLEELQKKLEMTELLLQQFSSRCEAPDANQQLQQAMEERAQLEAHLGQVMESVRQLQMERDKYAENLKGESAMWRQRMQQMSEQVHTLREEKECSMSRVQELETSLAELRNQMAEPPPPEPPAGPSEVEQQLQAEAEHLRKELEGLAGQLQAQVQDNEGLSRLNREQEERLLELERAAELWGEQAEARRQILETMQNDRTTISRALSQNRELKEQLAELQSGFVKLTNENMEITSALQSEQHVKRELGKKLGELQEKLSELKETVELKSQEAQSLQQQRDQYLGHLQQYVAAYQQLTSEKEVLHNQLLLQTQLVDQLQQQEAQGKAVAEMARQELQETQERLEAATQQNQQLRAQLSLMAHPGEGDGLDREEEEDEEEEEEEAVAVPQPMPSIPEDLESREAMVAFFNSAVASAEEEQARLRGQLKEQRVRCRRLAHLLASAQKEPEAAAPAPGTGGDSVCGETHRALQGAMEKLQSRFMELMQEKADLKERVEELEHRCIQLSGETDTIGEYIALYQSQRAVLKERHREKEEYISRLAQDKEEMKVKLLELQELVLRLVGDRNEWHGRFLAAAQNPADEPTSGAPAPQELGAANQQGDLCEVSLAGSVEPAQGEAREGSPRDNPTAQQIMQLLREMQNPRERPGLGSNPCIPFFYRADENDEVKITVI

hgs_human HGS, O14964 = variants of: B1; details: with hgs_human HGS
[2] = variants of: B1; details: with syce1_human SYCE1, Q8N0S2
[3] = variants of: B2; details: with goga2_human GOLGA2, Q08379; remark: listed apart in the source
Target sequence in this assay (Q08379 whole entry): as above

[4] = variants of: B2; details: with kifa3_human KIFAP3, Q92845
Chain of kifa3_human KIFAP3, Q92845 (Q92845 whole entry): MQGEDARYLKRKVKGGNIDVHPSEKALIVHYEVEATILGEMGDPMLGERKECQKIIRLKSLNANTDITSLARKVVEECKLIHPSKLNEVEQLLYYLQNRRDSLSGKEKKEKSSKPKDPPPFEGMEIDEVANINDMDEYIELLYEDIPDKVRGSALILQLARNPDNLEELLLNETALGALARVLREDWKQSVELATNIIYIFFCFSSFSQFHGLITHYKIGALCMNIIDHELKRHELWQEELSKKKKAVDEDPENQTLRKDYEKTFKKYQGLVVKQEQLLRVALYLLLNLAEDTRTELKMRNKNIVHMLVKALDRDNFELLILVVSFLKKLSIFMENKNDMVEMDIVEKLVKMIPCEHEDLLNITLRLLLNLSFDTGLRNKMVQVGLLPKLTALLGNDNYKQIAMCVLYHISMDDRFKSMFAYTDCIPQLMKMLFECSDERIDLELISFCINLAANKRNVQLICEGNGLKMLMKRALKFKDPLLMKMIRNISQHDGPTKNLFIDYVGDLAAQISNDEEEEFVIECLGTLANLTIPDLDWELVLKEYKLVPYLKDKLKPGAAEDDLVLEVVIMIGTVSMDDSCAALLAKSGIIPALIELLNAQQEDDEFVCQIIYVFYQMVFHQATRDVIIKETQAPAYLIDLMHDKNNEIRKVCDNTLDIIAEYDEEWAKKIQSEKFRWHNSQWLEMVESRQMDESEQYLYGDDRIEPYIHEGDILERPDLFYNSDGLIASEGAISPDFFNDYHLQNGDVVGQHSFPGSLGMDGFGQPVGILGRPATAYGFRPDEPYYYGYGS

Chain of hgs_human HGS, O14964 (O14964 whole entry): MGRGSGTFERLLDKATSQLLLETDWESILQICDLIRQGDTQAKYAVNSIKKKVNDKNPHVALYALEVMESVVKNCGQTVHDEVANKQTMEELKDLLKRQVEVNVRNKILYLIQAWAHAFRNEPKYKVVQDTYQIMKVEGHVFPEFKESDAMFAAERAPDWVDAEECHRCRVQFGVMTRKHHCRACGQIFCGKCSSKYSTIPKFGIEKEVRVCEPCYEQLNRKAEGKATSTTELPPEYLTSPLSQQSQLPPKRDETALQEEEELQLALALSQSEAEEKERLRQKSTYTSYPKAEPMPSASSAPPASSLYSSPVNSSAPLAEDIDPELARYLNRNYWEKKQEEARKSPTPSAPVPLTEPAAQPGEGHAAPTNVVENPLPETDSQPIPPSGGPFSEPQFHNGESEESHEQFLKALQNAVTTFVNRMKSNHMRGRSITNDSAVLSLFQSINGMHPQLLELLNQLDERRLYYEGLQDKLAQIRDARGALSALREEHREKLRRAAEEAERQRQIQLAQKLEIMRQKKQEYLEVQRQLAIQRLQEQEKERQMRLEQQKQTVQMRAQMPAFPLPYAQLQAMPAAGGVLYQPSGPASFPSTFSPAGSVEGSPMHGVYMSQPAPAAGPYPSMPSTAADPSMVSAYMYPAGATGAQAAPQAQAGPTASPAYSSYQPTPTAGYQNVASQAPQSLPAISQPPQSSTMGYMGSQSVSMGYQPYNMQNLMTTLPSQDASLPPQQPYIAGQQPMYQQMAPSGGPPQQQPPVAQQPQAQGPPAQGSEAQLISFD
Chain of syce1_human SYCE1, Q8N0S2 (Q8N0S2 whole entry): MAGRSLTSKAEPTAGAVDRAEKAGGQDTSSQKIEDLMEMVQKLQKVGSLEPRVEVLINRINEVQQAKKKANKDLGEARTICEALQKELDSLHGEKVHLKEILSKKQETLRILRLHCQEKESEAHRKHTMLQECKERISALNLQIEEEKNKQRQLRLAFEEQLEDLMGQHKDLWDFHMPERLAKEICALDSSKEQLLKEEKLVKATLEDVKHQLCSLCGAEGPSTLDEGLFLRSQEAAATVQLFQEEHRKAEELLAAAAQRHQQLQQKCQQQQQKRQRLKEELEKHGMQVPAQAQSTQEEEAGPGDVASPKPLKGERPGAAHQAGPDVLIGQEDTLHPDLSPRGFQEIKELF

Row | Variant | effect of a mutation on the interaction [1] | effect of a mutation on the interaction (hgs_human HGS, O14964) | effect of a mutation on the interaction [2] | effect of a mutation on the interaction [3] | effect of a mutation on the interaction [4]
1 | MSFTTRSTFSTNYRSLGSVQAPSYGARPVSSAASVYAGAGGSGSRISVSRSTSFRGGMGSGGLATGIAGGLAGMGGIQNEKETMQSLNDRLASYLDRVRSLETENRRLESKIREHLEKKGPQVRDWSHYFKIIEDLRAQIFANTVDNARIVLQIDNARLAADDFRVKYETELAMRQSVENDIHGLRKVIDDTNITRLQLETEIEALKEELLFMKKNHEEEVKGLQAQIASSGLTVEVDAPKSQDLAKIMADIRAQYDELARKNREELDKYWSQQIEESTTVVTTQSAEVGAAETTLTELRRTVQSLEIDLDSMRNLKASLENSLREVEARYALQMEQLNRILLHLESELAQTRAEGQRQAQEYEALLNIKVKLEAEIATYRRLLEDGEDFNLGDALDSSNSMQTIQKTTTRRIVDGKVVSETNDTKVLRH [G340R] | disrupting interaction strength | disrupting interaction strength | with no effect |  | 
2 | MSFTTRSTFSTNYRSLGSVQAPSYGARPVSSAASVYAGAGGSGSRISVSRSTSFRGGMGSGGLATGIAGGLAGMGGIQNEKETMQSLNDRLASYLDRVRSLETENRRLESKIREHLEKKGPQVRDWSHYFKIIEDLRAQIFANTVDNARIVLQIDNARLAADDFRVKYETELAMRQSVENDIHGLRKVIDDTNITRLQLETEIEALKEELLFMKKNHEEEVKGLQAQIASSGLTVEVDAPKSQDLAKIMADIRAQYDELARKNREELDKYWSQQIEESTTVVTTRSAEVGAAETTLTELRRTVQSLEIDLDSMRNLKASLENSLREVEARYALQMEQLNGILLHLESELAQTRAEGQRQAQEYEALLNIKVKLEAEIATYRRLLEDGEDFNLGDALDSSNSMQTIQKTTTRRIVDGKVVSETNDTKVLRH [Q285R] | disrupting interaction strength | disrupting interaction strength | with no effect |  | 
3 | MSFTTRSTFSTNYRSLGSVQAPSYGARPVSSAASVYAGAGGSGSRISVSRSTSFRGGMGSGGLATGIAGGLAGMGGIQNEKETMQSLNDRLASYLDRVRSLEAENRRLESKIREHLEKKGPQVRDWSHYFKIIEDLRAQIFANTVDNARIVLQIDNARLAADDFRVKYETELAMRQSVENDIHGLRKVIDDTNITRLQLETEIEALKEELLFMKKNHEEEVKGLQAQIASSGLTVEVDAPKSQDLAKIMADIRAQYDELARKNREELDKYWSQQIEESTTVVTTQSAEVGAAETTLTELRRTVQSLEIDLDSMRNLKASLENSLREVEARYALQMEQLNGILLHLESELAQTRAEGQRQAQEYEALLNIKVKLEAEIATYRRLLEDGEDFNLGDALDSSNSMQTIQKTTTRRIVDGKVVSETNDTKVLRH [T103A] | disrupting interaction strength | disrupting interaction strength | disrupting interaction strength |  | 
4 | MSFTTRSTFSTNYRSLGSVQAPSYGARPVSSAASVYAGAGGSGSRISVSRSTSFRGGMGSGGLATGIAGGLAGMGGIQNEKETMQSLNDRLASYLDRVRSLETENRRLESKIREHLEKKGPQVRDWSLYFKIIEDLRAQIFANTVDNARIVLQIDNARLAADDFRVKYETELAMRQSVENDIHGLRKVIDDTNITRLQLETEIEALKEELLFMKKNHEEEVKGLQAQIASSGLTVEVDAPKSQDLAKIMADIRAQYDELARKNREELDKYWSQQIEESTTVVTTQSAEVGAAETTLTELRRTVQSLEIDLDSMRNLKASLENSLREVEARYALQMEQLNGILLHLESELAQTRAEGQRQAQEYEALLNIKVKLEAEIATYRRLLEDGEDFNLGDALDSSNSMQTIQKTTTRRIVDGKVVSETNDTKVLRH [H128L] | with no effect | with no effect | with no effect |  | 
5 | MSLVEAISLWNEGVLAADKKDWKGALDAFSAVQDPHSRICFNIGCMYTILKNMTEAEKAFTRSINRDKHLAVAYFQQGMLYYQTEKYDLAIKDLKEALIQLRGNQLIDYKILGLQFKLFACEVLYNIAFMYAKKEEWKKAEEQLALATSMKSEPRHSKIDKAMECVWKQKLYEPVVIPVGKLFRPNERQVAQLAKKDYLGKATVVASVVDQDSFSGFAPLQPQAAEPPPRPKTPEIFRALEGEAHRVLFGFVPETKEELQVMPGNIVFVLKKGNDNWATVMFNGQKGLVPCNYLEPVELRIHPQQQPQEESSPQSDIPAPPSSKAPGRPQLSPGQKQKEEPKEVKLSVPMPYTLKVHYKYTVVMKTQPGLPYSQVRDMVSKKLELRLEHTKLSYRPRDSNELVPLSEDSMKDAWGQVKNYCLTLWCENTVGDQGFPDEPKESEKADANNQTTEPQLKKGSQVEALFSYEATQPEDLEFQEGDIILVLSKVNEEWLEGECKGKVGIFPKVFVEDCATTDLESTRREV [R77Q] |  |  |  | disrupting interaction strength | disrupting interaction strength
